From article PMC6487263, “Kinetic and structural analysis of human ALDH9A1” (Bioscience Reports, 2019)

Legend:
Test in all cases: purified protein
Format in all cases: biochemical, Homo sapiens
Settings in all cases: 1 mM NAD+, 150 mM sodium pyrophosphate pH 7.5, 30 °C
purified protein [1] = substrate: NCCC=O
purified protein [2] = substrate: NCCCC=O
purified protein [3] = substrate: O=CCc1ccc(O)c(O)c1
purified protein [4] = substrate: N=C(N)NCCCC=O
purified protein [5] = substrate: C[N+](C)(C)CCCC=O

B1: human ALDH9A1 (HsALDH9A1) (Homo sapiens) (protein)
chain: MSTGTFVVSQPLNYRGGARVEPADASGTEKAFEPATGRVIATFTCSGEKEVNLAVQNAKAAFKIWSQKSGMERCRILLEAARIIREREDEIATMECINNGKSIFEARLDIDISWQCLEYYAGLAASMAGEHIQLPGGSFGYTRREPLGVCVGIGAWNYPFQIASWKSAPALACGNAMVFKPSPFTPVSALLLAEIYSEAGVPPGLFNVVQGGAATGQFLCQHPDVAKVSFTGSVPTGMKIMEMSAKGIKPVTLELGGKSPLIIFSDCDMNNAVKGALMANFLTQGQVCCNGTRVFVQKEILDKFTEEVVKQTQRIKIGDPLLEDTRMGPLINRPHLERVLGFVKVAKEQGAKVLCGGDIYVPEDPKLKDGYYMRPCVLTNCRDDMTCVKEEIFGPVMSILSFDTEAEVLERANDTTFGLAAGVFTRDIQRAHRVVAELQAGTCFINNYNVSPVELPFGGYKKSGFGRENGRVTIEYYSQLKTVCVEMGDVESAF
notes: full-length 494-residue protein, His-tag kept (pCDFDuet, BamHI/XhoI), recombinant from E. coli; silent polymorphism at Ile110 codon
B1 was tested. Which Km (purified protein [1]) did it give?
The Km was 56 ± 7 µM.

What about the Vmax (purified protein [1]) of the same protein?
The Vmax was 0.108 µmol/min/mg.

And the Km (purified protein [2])?
The Km was 67 ± 7 µM.

What about the Vmax (purified protein [2]) of the same protein?
Its Vmax is 0.108 µmol/min/mg.

What about the Km (purified protein [3]) of the same protein?
The Km was 11 ± 1 µM.

What about the Vmax (purified protein [3]) of the same protein?
Its Vmax is 0.03 µmol/min/mg.

What about the Km (purified protein [4]) of the same protein?
Its Km is 21 ± 2 µM.

And the Vmax (purified protein [4])?
The Vmax was 0.114 µmol/min/mg.

And the Km (purified protein [5])?
The Km was 6 ± 1 µM.

And the Vmax (purified protein [5])?
Its Vmax is 0.588 µmol/min/mg.
